Sequences and labels used below:
B5: human soluble ULBP6 haplotype 02 (hULBP6_02) (ligand)
chain: RRDDPHSLCYDITVIPKFRPGPRWCAVQGQVDEKTFLHYDCGNKTVTPVSPLGKKLNVTTAWKAQNPVLREVVDILTEQLLDIQLENYTPKEPLTLQARMSCEQKAEGHSSGSWQFSIDGQTFLLFDSEKRMWTTVHPGARKMKEKWENDKDVAMSFHYISMGDCIGWLEDFLMGMDSTLEPSAGAPLAMSSG
notes: also called sULBP6_02
B6: human soluble ULBP6 haplotype 01 (hULBP6_01) (ligand)
chain: GRDDPHSLCYDITVIPKFRPGPRWCAVQGQVDEKTFLHYDCGNKTVTPVSPLGKKLNVTTAWKAQNPVLREVVDILTEQLRDIQLENYTPKEPLTLQARMSCEQKAEGHSSGSWQFSIDGQIFLLFDSEKRMWTTVHPGARKMKEKWENDKDVAMSFHYISMGDCIGWLEDFLMGMDSTLEPSAGAPLAMSSG
notes: also called sULBP6_01

Assay [1] concerns the target B6. As to the kind of experiment: blocking ELISA; hNKG2D coated, antibody titrated with biotinylated hULBP6_01. Background: In an ELISA, binding on a coated surface is turned into a signal by an enzyme label.
For assay [2], the target named is B5. As to the kind of experiment: cell-based or functional assay.
In assay [3] the target is T1, cynomolgus soluble ULBP2/6 (cULBP2/6) (cynomolgus, UniProt Q5VY80 28-217 (human entry), limits assumed).
T1 construct: also called cyno ULBP6; Cyno-cULBP2/6
T1 chain: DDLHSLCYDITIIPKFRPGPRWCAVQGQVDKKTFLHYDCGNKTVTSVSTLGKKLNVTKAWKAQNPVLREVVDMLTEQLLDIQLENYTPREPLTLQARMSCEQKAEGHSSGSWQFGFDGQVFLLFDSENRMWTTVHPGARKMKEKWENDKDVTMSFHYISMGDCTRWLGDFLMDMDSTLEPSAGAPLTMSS
The experiment in a line: SPR (BIACORE).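 Further: soluble human and cynomolgus NKG2D ligands injected as analytes in 3-fold dilution series spanning 0.01 to 50 nM at 37 °C, reference-subtracted sensorgrams fitted to a 1:1 Langmuir model.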

The target of assay [4] is B6. As to the kind of experiment: SPR (BIACORE).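 Further: soluble human and cynomolgus NKG2D ligands injected as analytes in 3-fold dilution series spanning 0.01 to 50 nM at 37 °C, reference-subtracted sensorgrams fitted to a 1:1 Langmuir model.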 On the technique in general: SPR reads the build-up and loss of mass on a sensor chip optically.
For assay [5], the target named is T2, human soluble ULBP2 (hULBP2) (human, UniProt Q9BZM5 26-216).
T2 construct: also called sULBP2
T2 sequence: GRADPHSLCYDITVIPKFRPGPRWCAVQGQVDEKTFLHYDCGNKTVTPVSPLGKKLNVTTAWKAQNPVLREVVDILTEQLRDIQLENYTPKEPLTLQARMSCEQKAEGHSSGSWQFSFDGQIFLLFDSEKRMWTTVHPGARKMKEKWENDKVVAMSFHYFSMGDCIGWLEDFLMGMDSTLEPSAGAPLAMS
As to the kind of experiment: SPR (BIACORE).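 Further: soluble human and cynomolgus NKG2D ligands injected as analytes in 3-fold dilution series spanning 0.01 to 50 nM at 37 °C, reference-subtracted sensorgrams fitted to a 1:1 Langmuir model.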

Assay [6] deals with T3, human soluble ULBP5 (hULBP5) (human, UniProt Q6H3X3 26-218).
T3 construct: also called sULBP5
T3 sequence: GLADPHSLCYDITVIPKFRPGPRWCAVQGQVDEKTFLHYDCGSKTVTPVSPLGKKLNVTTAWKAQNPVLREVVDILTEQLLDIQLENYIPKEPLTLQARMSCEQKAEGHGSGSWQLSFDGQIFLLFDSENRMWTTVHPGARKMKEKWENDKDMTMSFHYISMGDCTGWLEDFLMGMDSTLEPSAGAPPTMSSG
The experiment in a line: SPR (BIACORE).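 Further: soluble human and cynomolgus NKG2D ligands injected as analytes in 3-fold dilution series spanning 0.01 to 50 nM at 37 °C, reference-subtracted sensorgrams fitted to a 1:1 Langmuir model.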

In assay [7] the target is T4, cynomolgus soluble ULBP5 (cULBP5) (cynomolgus).
T4 construct: also called Cyno-cULBP5
T4 chain: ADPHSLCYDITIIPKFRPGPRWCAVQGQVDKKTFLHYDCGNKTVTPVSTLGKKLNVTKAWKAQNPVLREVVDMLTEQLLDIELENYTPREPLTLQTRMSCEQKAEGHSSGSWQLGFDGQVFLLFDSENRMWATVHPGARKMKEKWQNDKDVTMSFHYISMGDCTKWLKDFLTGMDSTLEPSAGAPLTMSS
The experiment in a line: SPR (BIACORE).

Assay [8] addresses B5. As to the kind of experiment: SPR (BIACORE).
The target in assay [9] is B6. As to the kind of experiment: blocking ELISA; hNKG2D coated, antibody titrated with biotinylated hULBP6_01; hNKG2D-hULBP6_01 interaction; value of the running text.
The target of assay [10] is B5. The experiment in a line: blocking ELISA; hNKG2D coated, antibody titrated with biotinylated hULBP6_02; hNKG2D-hULBP6_02 interaction; value of the running text.
Assay [11] concerns the target B5. The experiment in a line: blocking ELISA; hNKG2D coated, antibody titrated with biotinylated hULBP6_02.
For assay [12], the target named is T1, cynomolgus soluble ULBP2/6 (cULBP2/6). As to the kind of experiment: BLI (OCTET), mouse antibody captured from hybridoma supernatant on AMC biosensor, 300 nM cULBP2/6.
The target of assay [13] is T5, NKG2D on cells (NKG2D expressing cells, primed PBMCs) (UniProt P26718 1-216).
T5 construct: whole, on cells; also called cell surface NKG2D
T5 sequence (looked up): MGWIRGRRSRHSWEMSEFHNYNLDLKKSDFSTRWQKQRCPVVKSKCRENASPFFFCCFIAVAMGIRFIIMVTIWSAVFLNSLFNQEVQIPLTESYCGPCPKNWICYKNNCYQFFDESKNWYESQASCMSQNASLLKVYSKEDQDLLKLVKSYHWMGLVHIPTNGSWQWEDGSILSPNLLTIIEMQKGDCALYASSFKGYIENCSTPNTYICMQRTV
As to the kind of experiment: competition with anti-NKG2D mAb on NKG2D expressing cells (data not shown).

Assay [14] has as its target hNKG2D-Fc (human NKG2D 78-216 with C-terminal long huFc-Flag tag) (human). The experiment in a line: SPR (BIACORE 8K, 37 C); hNKG2D-Fc captured on Protein A, soluble ligand injected.

hNKG2D-Fc (human NKG2D 78-216 with C-terminal long huFc-Flag tag) (human), sequence (chain, as listed by the source limits assumed): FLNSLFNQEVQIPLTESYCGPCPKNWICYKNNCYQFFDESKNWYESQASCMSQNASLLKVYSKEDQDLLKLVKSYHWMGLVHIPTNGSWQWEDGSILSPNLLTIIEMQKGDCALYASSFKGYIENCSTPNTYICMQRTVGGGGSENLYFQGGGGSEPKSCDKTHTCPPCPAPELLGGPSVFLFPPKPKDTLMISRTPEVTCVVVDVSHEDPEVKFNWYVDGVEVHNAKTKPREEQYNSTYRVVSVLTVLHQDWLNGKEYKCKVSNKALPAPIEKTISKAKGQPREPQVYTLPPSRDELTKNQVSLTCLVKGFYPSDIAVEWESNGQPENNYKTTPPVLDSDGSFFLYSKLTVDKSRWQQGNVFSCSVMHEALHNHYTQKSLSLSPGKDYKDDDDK

B1: Humanized 8E11 (h8E11) (E-) (antibody, human IgG1, kappa, N297G, V domains shown)
VH: EVQLVESGGGLVQPGGSLRLSCAASGFTFRTYGMHWVRQAPGKGLEWVAYISSGSGTIDYADTVKGRFTISRDNAKNSLYLQMNSLRAEDTAVYYCTRQTGAMDYWGQGTLVTVSS
VL: EIVLTQSPATLSLSPGERATLSCSASSSVSYMNWYQQKPGQSPRLWIYGISNLASGVPARFSGSGSGTDFTLTISSLEPEDFAVYYCQQRSSHPLTFGGGTKVEIKR
notes: hIgG1 with N297G (effector negative)
Regarding B1, the IC50 (as a rule, the point on the concentration scale where inhibition reaches its midpoint) in [1] was determined as 5.06 nM; in assay [9], 4.32 nM; in assay [10], 1.59 nM; in [11], 0.035 nM. For the same molecule, in assay [2], the “EC50 (read off the curve); NKG2D MFI on primed PBMCs of donor 1307 with 50 nM sULBP6_02” value was ~20 nM. Moreover, the Kd (usually the equilibrium constant for the complex coming apart) in assay [3] turned out to be 2.06 nM; in [4] it was 0.27 nM; in assay [5], 0.5 nM; in assay [6], 1.76 nM; in assay [7], 23.1 nM; in assay [8], 0.28 nM.

B2: Humanized 7B3 (h7B3) (E-) (antibody, human IgG1, kappa, N297G, V domains shown)
VH: EVQLVESGGGLVQPGGSLRLSCAASGFTFSTYGFHWVRQAPGKGLEWVAYISSNSGTIDYADTVKGRFTISRDNAKNSLYLQMNSLRAEDTAVYYCARQGYGFDNWGQGTTVTVSS
VL: DIQLTQSPSSLSASVGDRVTITCSASSRVSYMNWYQQKPGKSPKIWVYGISNLASGVPSRFSGSGSGTDFTFTISSLQPEDIATYYCQQRSSHPLTFGGGTKVEIKR
notes: as for B1
Take B2: the half-maximal inhibitory concentration (IC50) in [1] amounted to 4.48 nM; in [9], 4.47 nM; in assay [10], 1.52 nM; in assay [11], 0.028 nM. The “EC50 (read off the curve); NKG2D MFI on primed PBMCs of donor 1307 with 50 nM sULBP6_02” value in assay [2] is ~20 nM. The dissociation constant (Kd) in assay [3] stood at 0.48 nM; in assay [4] it was 0.22 nM; in [5], 0.54 nM; in assay [6], 2.39 nM; in assay [7], 7.67 nM; in assay [8] it was 0.2 nM.

B3: 8E11 (mouse hybridoma clone) (antibody, V domains shown)
VH: DVQLVESGGGLVQPGGSRKLSCAASGFTFRTYGMHWVRQAPEKGLEWVAYISSGSGTIDYADTVKGRFTISRDNAKNTLFLQMTSLRSEDTAMYYCTRQTGAMDYWGQGTSVTVSS
VL: EILLTQSPAIIAASPGEKVTITCSASSSVSYMNWYQQKPGSSPKLWIYGISNLASGVPARFSGSGSGTSFSFTINSMEAEDVATYYCQQRSSHPLTFGAGTKLELK
notes: Tested as hybridoma culture supernatant
Turning to B3, in assay [12], the binding result is recorded as “binds”.

B4: 7B3 (mouse hybridoma clone) (antibody, V domains shown)
VH: DVQLVESGGGLVKPGGSRKLSCAASGFTFSTYGFHWVRQVPEKGLEWVAYISSNSGTIDYADTVKGRFTISRDNAKNTLFLQMTSLRSEDTAMYYCARQGYGFDNWGQGTTLTVSS
VL: EILLTQSPAIIAASPGEKVTITCSASSRVSYMNWYQQKPGSSPKIWVYGISNLASGVPARFSGSGSGTSFSFTINSMEAEDVATYYCQQRSSHPLTFGAGTKLELK
notes: Tested as hybridoma culture supernatant; also called mAb 7B3
As for B4, the binding result in assay [12] is “binds”.

As for B5, the binding result in assay [13] is given as “binds”. Besides, the affinity in [14], expressed as Kd, was 4.8 nM.

Regarding B6, in [13], the binding result is on record as “binds”. The dissociation constant (Kd) in [14] worked out at 41 nM.
